Where a chain is given by its changes, count along the chain named.
How the values were obtained:
Assay in all cases: SPR
[1] = biological target: T1, human MDGA1 WT soluble ectodomain (residues 22-920, lacking the GPI anchor region), (His)6-tagged (human, UniProt Q8NFP4-1 22-920)
T1 sequence: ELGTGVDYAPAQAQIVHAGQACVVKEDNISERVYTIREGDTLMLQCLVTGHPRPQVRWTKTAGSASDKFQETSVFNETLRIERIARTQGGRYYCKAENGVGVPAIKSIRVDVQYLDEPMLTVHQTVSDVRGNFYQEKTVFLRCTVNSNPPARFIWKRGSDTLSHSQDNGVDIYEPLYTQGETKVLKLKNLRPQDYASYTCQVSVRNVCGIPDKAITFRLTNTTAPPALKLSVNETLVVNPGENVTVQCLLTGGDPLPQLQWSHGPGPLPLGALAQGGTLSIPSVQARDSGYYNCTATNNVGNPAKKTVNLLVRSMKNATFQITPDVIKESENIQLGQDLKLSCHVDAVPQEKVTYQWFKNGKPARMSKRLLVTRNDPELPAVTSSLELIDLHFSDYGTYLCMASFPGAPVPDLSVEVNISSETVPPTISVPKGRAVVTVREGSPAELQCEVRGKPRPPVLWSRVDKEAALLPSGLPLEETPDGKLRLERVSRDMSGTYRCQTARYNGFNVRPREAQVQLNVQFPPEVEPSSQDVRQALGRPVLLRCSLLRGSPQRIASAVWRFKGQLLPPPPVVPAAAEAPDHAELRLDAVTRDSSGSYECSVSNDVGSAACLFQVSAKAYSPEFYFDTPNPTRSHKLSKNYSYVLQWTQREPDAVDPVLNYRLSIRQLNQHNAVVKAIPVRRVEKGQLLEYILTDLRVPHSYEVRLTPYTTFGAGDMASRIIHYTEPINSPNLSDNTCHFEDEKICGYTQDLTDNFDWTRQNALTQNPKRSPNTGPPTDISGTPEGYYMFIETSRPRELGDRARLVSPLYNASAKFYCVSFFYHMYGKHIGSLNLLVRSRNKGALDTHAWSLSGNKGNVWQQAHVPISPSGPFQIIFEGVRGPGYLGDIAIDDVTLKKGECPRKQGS

[2] = biological target: T2, human MDGA1 T135C/N313C soluble ectodomain, (His)6-tagged (human, UniProt Q8NFP4-1 22-920, T135C | N313C)
T2 sequence: T1 sequence with T121C, N299C

[3] = biological target: T3, human MDGA1 V314D soluble ectodomain, (His)6-tagged (human, UniProt Q8NFP4-1 22-920, V314D)
T3 sequence: T1 sequence with V300D

[4] = biological target: T4, human MDGA1 I336D soluble ectodomain, (His)6-tagged (human, UniProt Q8NFP4-1 22-920, I336D)
T4 sequence: T1 sequence with I322D

- Kd [1]: 3.4 nM
- binding result [2]: binds
- binding result [3]: binds
- binding result [4]: binds
B1: extracellular domain of rat NLGN2 (residues V43-H612) with splice insert A (domain or fragment, UniProt Q62888-1 43-612, looked up)
chain: VVNTAYGRVRGVRRELNNEILGPVVQFLGVPYATPPLGARRFQPPEAPASWPGVRNATTLPPACPQNLHGALPAIMLPVWFTDNLEAAATYVQNQSEDCLYLNLYVPTEDGPLTKKRDEATLNPPDTDIRDSGKKPVMLFLHGGSYMEGTGNMFDGSVLAAYGNVIVATLNYRLGVLGFLSTGDQAAKGNYGLLDQIQALRWLSENIAHFGGDPERITIFGSGAGASCVNLLILSHHSEGLFQKAIAQSGTAISSWSVNYQPLKYTRLLAAKVGCDREDSTEAVECLRRKSSRELVDQDVQPARYHIAFGPVVDGDVVPDDPEILMQQGEFLNYDMLIGVNQGEGLKFVEDSAESEDGVSASAFDFTVSNFVDNLYGYPEGKDVLRETIKFMYTDWADRDNGEMRRKTLLALFTDHQWVAPAVATAKLHADYQSPVYFYTFYHHCQAEGRPEWADAAHGDELPYVFGVPMVGATDLFPCNFSKNDVMLSAVVMTYWTNFAKTGDPNQPVPQDTKFIHTKPNRFEEVVWSKFNSKEKQYLHIGLKPRVRDNYRANKVAFWLELVPHLHNLH

Source: publication PMC10131064 (The Journal of Biological Chemistry, 2023)
